The target in assay [1] is His6-tagged full-length gp25 (tail fiber chaperone of myocyanophage Pam3), expressed alone (cyanophage Pam3). The experiment in a line: SEC; individually expressed His-gp24 or His-gp25; Superdex 200 Increase 10/300 column; peaks analysed by SDS-PAGE.
The target in assay [2] is His6-tagged full-length gp24 (tail fiber protein of myocyanophage Pam3) (cyanophage Pam3). The experiment in a line: SEC-MALS; Superdex 200 Increase 10/300 GL in 20 mM Tris-HCl pH 7.0, 100 mM NaCl, 7 mM beta-mercaptoethanol; 1 mg/mL, 100 uL. For orientation: Size exclusion chromatography separates by hydrodynamic size, large species first.
For assay [3] the target is unchanged. The experiment in a line: SEC; His-gp24 co-expressed with untagged gp25 in E. coli, purified by Ni-NTA; Superdex 200 Increase 10/300 column; peaks analysed by SDS-PAGE.
The target is the same in assay [4]. The experiment in a line: SEC; individually expressed His-gp24 or His-gp25; Superdex 200 Increase 10/300 column; peaks analysed by SDS-PAGE.
For assay [5] the target is unchanged. The experiment in a line: SDS-PAGE of samples that were not boiled; purified protein treated with beta-mercaptoethanol, not boiled.

In general, stoichiometry N refers to a count of units in the complex or per binding partner. “His6-tagged full-length gp25 (tail fiber chaperone of myocyanophage Pam3), expressed alone (natural protein)”: the stoichiometry N in assay [1] is 3.

Turning to “gp25 (tail fiber chaperone of myocyanophage Pam3), untagged, co-expressed with His-gp24 (natural protein)”, the stoichiometry N (gp25 per gp24 (3:3)) in assay [2] was 1.

Consider “His6-tagged full-length gp24 (tail fiber protein of myocyanophage Pam3) (natural protein)”, for which the stoichiometry N in assay [2], in assay [3], in assay [4] and in assay [5] was 3 in each case.

The record behind these values is publication PMC9608196.
